Laboratory results: publication doi:10.1101/2021.06.21.449265 (bioRxiv, 2021)

T1: Fy-1 (Tbck) (human, UniProt Q8TEA7 1-893)
T1 sequence (looked up): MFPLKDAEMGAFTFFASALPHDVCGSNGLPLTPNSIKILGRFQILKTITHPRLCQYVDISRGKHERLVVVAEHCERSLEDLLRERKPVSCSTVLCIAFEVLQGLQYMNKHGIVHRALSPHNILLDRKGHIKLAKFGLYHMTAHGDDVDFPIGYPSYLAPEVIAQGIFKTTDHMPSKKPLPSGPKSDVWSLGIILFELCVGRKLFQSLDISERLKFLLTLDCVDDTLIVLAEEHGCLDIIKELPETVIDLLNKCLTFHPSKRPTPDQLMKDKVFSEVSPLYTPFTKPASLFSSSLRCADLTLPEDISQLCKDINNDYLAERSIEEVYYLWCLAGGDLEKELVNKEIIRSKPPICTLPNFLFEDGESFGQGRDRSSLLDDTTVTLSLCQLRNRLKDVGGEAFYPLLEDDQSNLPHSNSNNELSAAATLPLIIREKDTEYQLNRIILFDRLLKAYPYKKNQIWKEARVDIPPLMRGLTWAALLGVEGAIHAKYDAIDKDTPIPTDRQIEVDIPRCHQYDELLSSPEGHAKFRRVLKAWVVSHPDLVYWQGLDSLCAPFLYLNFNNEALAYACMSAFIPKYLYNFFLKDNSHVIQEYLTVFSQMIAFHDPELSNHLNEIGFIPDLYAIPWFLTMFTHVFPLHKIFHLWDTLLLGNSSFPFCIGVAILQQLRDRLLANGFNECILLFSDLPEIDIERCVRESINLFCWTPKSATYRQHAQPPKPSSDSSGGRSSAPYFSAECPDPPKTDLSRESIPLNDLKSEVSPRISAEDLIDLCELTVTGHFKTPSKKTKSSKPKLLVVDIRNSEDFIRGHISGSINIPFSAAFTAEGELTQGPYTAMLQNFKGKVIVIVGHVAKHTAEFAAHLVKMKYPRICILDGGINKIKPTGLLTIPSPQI

B1: Fy-4 (Cryzl1) (natural protein, human, UniProt O95825 1-349, looked up)
chain: MKGLYFQQSSTDEEITFVFQEKEDLPVTEDNFVKLQVKACALSQINTKLLAEMKMKKDLFPVGREIAGIVLDVGSKVSFFQPDDEVVGILPLDSEDPGLCEVVRVHEHYLVHKPEKVTWTEAAGSIRDGVRAYTALHYLSHLSPGKSVLIMDGASAFGTIAIQLAHHRGAKVISTACSLEDKQCLERFRPPIARVIDVSNGKVHVAESCLEETGGLGVDIVLDAGVRLYSKDDEPAVKLQLLPHKHDIITLLGVGGHWVTTEENLQLDPPDSHCLFLKGATLAFLNDEVWNLSNVQQGKYLCILKDVMEKLSTGVFRPQLDEPIPLYEAKVSMEAVQKNQGRKKQVVQF
B2: Fy-2 (Ppp1r21) (natural protein, human, UniProt Q6ZMI0 1-780, looked up)
chain: MASAELQGKYQKLAQEYSKLRAQNQVLKKGVVDEQANSAALKEQLKMKDQSLRKLQQEMDSLTFRNLQLAKRVELLQDELALSEPRGKKNKKSGESSSQLSQEQKSVFDEDLQKKIEENERLHIQFFEADEQHKHVEAELRSRLATLETEAAQHQAVVDGLTRKYMETIEKLQNDKAKLEVKSQTLEKEAKECRLRTEECQLQLKTLHEDLSGRLEESLSIINEKVPFNDTKYSQYNALNVPLHNRRHQLKMRDIAGQALAFVQDLVTALLNFHTYTEQRIQIFPVDSAIDTISPLNQKFSQYLHENASYVRPLEEGMLHLFESITEDTVTVLETTVKLKTFSEHLTSYICFLRKILPYQLKSLEEECESSLCTSALRARNLELSQDMKKMTAVFEKLQTYIALLALPSTEPDGLLRTNYSSVLTNVGAALHGFHDVMKDISKHYSQKAAIEHELPTATQKLITTNDCILSSVVALTNGAGKIASFFSNNLDYFIASLSYGPKAASGFISPLSAECMLQYKKKAAAYMKSLRKPLLESVPYEEALANRRILLSSTESREGLAQQVQQSLEKISKLEQEKEHWMLEAQLAKIKLEKENQRIADKLKNTGSAQLVGLAQENAAVSNTAGQDEATAKAVLEPIQSTSLIGTLTRTSDSEVPDVESREDLIKNHYMARIVELTSQLQLADSKSVHFYAECRALSKRLALAEKSKEALTEEMKLASQNISRLQDELTTTKRSYEDQLSMMSDHLCSMNETLSKQREEIDTLKMSSKGNSKKNKSR
B3: Fy-3 (C12orf4) (natural protein, human, UniProt Q9NQ89 1-552, looked up)
chain: MKKNRERFCNREREFVYKFKVGSQCLELRVPLKFPVQENASHLHGRLMLLHSLPCFIEKDLKEALTQFIEEESLSDYDRDAEASLAAVKSGEVDLHQLASTWAKAYAETTLEHARPEEPSWDEDFADVYHDLIHSPASETLLNLEHNYFVSISELIGERDVELKKLRERQGIEMEKVMQELGKSLTDQDVNSLAAQHFESQQDLENKWSNELKQSTAIQKQEYQEWVIKLHQDLKNPNNSSLSEEIKVQPSQFRESVEAIGRIYEEQRKLEESFTIHLGAQLKTMHNLRLLRADMLDFCKHKRNHRSGVKLHRLQTALSLYSTSLCGLVLLVDNRINSYSGIKRDFATVCQECTDFHFPRIEEQLEVVQQVVLYARTQRRSKLKESLDSGNQNGGNDDKTKNAERNYLNVLPGEFYITRHSNLSEIHVAFHLCVDDHVKSGNITARDPAIMGLRNILKVCCTHDITTISIPLLLVHDMSEEMTIPWCLRRAELVFKCVKGFMMEMASWDGGISRTVQFLVPQSISEEMFYQLSNMLPQIFRVSSTLTLTSKH
B4: Rab5 (Rab5a), GTPγS loaded (natural protein, human, UniProt P20339 1-215, looked up)
chain: MASRGATRPNGPNTGNKICQFKLVLLGESAVGKSSLVLRFVKGQFHEFQESTIGAAFLTQTVCLDDTTVKFEIWDTAGQERYHSLAPMYYRGAQAAIVVYDITNEESFARAKNWVKELQRQASPNIVIALSGNKADLANKRAVDFQEAQSYADDNSLLFMETSAKTSMNVNEIFMAIAKKLPKNEPQNPGANSARGRGVDLTEPTQPTRNQCCSN
B5: Fy-5 (Gatd1) (natural protein, human, UniProt Q8NB37 1-220, looked up)
chain: MASERLPNRPACLLVASGAAEGVSAQSFLHCFTMASTAFNLQVATPGGKAMEFVDVTESNARWVQDFRLKAYASPAKLESIDGARYHALLIPSCPGALTDLASSGSLARILQHFHSESKPICAVGHGVAALCCATNEDRSWVFDSYSLTGPSVCELVRAPGFARLPLVVEDFVKDSGACFSASEPDAVHVVLDRHLVTGQNASSTVPAVQNLLFLCGSRK

Legend:
Fy-2 (Ppp1r21) [1] = biological target: B2; assay: cryo-EM structure
cryo-EM structure = biological target: the molecule itself; assay: cryo-EM structure
Fy-1 (Tbck) = biological target: T1, Fy-1 (Tbck); assay: HDX-MS
Fy-2 (Ppp1r21) [2] = biological target: B2; assay: HDX-MS

| Binder | binding result (Fy-2 (Ppp1r21) [1]) | stoichiometry N (cryo-EM structure) | binding result (Fy-1 (Tbck)) | binding result (Fy-2 (Ppp1r21) [2]) |
| --- | --- | --- | --- | --- |
| B1 | binds | 2 |  |  |
| B2 |  | 2 | binds |  |
| B3 |  |  |  | binds |
| B4 |  |  |  | binds |
| B5 |  | 2 |  |  |
